In article PMC4518479, “Rad51 Paralogs Remodel Pre-synaptic Rad51 Filaments to Stimulate Homologous Recombination” (Cell, 2015):
Numbering of substitutions follows the chain as printed.

Key:
[1] = molecular target: T1, RAD-51;RFS-1/RIP-1 (Caenorhabditis elegans;Caenorhabditis …, UniProt Q7K7I8;P34348;Q21621 1-357;1-245;1-209, |); assay: EMSA with anti-FLAG immuno-shift; ATP; RFS-1/RIP-1 bound to RAD-51 filament; EMSA: 20 mM triethanolamine-HCl pH 7.5, 8% glycerol, 1 mM DTT, 50 mM sodium acetate, 2 mM MgCl2 + 2 mM nucleotide (or 10 mM EDTA), 100 nM (nt) DNA, 25 °C; conditions: protein: recombinant;recombinant; label: 5'-32P or 5'-fluorescein
T1 sequence 1: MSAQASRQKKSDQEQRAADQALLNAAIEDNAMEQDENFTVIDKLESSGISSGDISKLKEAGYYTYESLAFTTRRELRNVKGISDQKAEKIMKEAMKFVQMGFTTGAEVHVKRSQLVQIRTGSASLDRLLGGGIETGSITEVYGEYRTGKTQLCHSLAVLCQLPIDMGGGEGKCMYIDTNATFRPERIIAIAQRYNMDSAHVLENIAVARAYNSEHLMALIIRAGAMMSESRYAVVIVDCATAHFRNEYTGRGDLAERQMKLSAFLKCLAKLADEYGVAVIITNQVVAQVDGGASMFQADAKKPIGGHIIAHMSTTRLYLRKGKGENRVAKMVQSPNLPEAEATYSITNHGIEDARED
T1 sequence 2: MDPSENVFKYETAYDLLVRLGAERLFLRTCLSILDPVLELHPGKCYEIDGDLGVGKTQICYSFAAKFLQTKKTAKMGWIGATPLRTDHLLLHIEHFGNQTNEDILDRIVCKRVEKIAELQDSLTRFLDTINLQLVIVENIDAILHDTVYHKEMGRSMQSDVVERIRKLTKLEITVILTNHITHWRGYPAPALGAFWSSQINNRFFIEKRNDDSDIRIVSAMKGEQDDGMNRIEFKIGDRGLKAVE
T1 sequence 3: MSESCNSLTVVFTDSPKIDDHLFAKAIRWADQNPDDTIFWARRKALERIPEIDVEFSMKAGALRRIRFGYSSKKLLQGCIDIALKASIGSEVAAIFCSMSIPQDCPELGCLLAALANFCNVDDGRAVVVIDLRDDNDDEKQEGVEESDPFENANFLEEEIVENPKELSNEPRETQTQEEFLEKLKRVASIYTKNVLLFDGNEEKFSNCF

[2] = molecular target: T2, RAD-51;RFS-1(K56A)/RIP-1 (Caenorhabditis elegans;Caenorhabditis …, UniProt Q7K7I8;P34348;Q21621 1-357;1-245;1-209, |K56A); assay: EMSA; ATP; filament binding similar to wild type; EMSA: 20 mM triethanolamine-HCl pH 7.5, 8% glycerol, 1 mM DTT, 50 mM sodium acetate, 2 mM MgCl2 + 2 mM nucleotide (or 10 mM EDTA), 100 nM (nt) DNA, 25 °C; conditions: protein: recombinant;recombinant; tags: none (His-SUMO tag cleaved);3xFLAG at RIP-1 C-terminus; label: 5'-32P or 5'-fluorescein
T2 sequence 1: T1 sequence 1
T2 sequence 2: T1 sequence 2 with K56A
T2 sequence 3: T1 sequence 3

[3] = molecular target: T3, RAD-51;RFS-1(E138A)/RIP-1 (Caenorhabditis elegans;Caenorhabditis …, UniProt Q7K7I8;P34348;Q21621 1-357;1-245;1-209, |E138A); assay: as above; conditions: protein: recombinant;recombinant; tags: none (His-SUMO tag cleaved);3xFLAG at RIP-1 C-terminus; label: 5'-32P or 5'-fluorescein
T3 sequence 1: T1 sequence 1
T3 sequence 2: T1 sequence 2 with E138A
T3 sequence 3: T1 sequence 3

[4] = molecular target: T4, RFS-1/RIP-1 (Caenorhabditis elegans, UniProt P34348;Q21621 1-245;1-209); assay: EMSA; weak binding; nucleotide independent; EMSA: 20 mM triethanolamine-HCl pH 7.5, 8% glycerol, 1 mM DTT, 50 mM sodium acetate, 2 mM MgCl2 + 2 mM nucleotide (or 10 mM EDTA), 100 nM (nt) DNA, 25 °C; conditions: protein: recombinant; copies: 1;1; label: 5'-32P or 5'-fluorescein
T4 sequence 1: T1 sequence 2
T4 sequence 2: T1 sequence 3

[5] = molecular target: T5, RFS-1(K56A)/RIP-1 (Caenorhabditis elegans, UniProt P34348;Q21621 1-245;1-209, K56A); assay: EMSA; increased ssDNA affinity relative to wild type; EMSA: 20 mM triethanolamine-HCl pH 7.5, 8% glycerol, 1 mM DTT, 50 mM sodium acetate, 2 mM MgCl2 + 2 mM nucleotide (or 10 mM EDTA), 100 nM (nt) DNA, 25 °C; conditions: protein: recombinant; tags: 3xFLAG at RIP-1 C-terminus; copies: 1;1; label: 5'-32P or 5'-fluorescein
T5 sequence 1: T1 sequence 2 with K56A
T5 sequence 2: T1 sequence 3

[6] = molecular target: T6, RFS-1(E138A)/RIP-1 (Caenorhabditis elegans, UniProt P34348;Q21621 1-245;1-209, E138A); assay: as above; conditions: protein: recombinant; tags: 3xFLAG at RIP-1 C-terminus; copies: 1;1; label: 5'-32P or 5'-fluorescein
T6 sequence 1: T1 sequence 2 with E138A
T6 sequence 2: T1 sequence 3

[7] = molecular target: T4, RFS-1/RIP-1; assay: EMSA; EMSA: 20 mM triethanolamine-HCl pH 7.5, 8% glycerol, 1 mM DTT, 50 mM sodium acetate, 2 mM MgCl2 + 2 mM nucleotide (or 10 mM EDTA), 100 nM (nt) DNA, 25 °C; conditions: protein: recombinant; copies: 1;1; label: 5'-32P; blunt
[8] = molecular target: T7, FLAG-tagged RIP-1 co-expressed with RFS-1 in budding yeast (C. elegans, UniProt Q21621 1-209); assay: SEC; 3 ml Superdex 75 5/150 GL column loaded with 30 ul RFS-1/RIP-1 from single-step FLAG immunoprecipitation; size from molecular weight markers; conditions: both partners purified
T7 construct: RIP-1 of C. elegans (R01H10.5); also called RIP-1-FLAG; source: budding yeast, co-expressed with RFS-1, in extract; purified by FLAG immunoprecipitation; not shown: FLAG, C-terminal, kept
T7 sequence (looked up): T1 sequence 3

B1: 60-mer ssDNA (ssDNA)
DNA: ACGCTGCCGAATTCTACCAGTGCCTTGCTAGGACATCTTTGCCCACCTGCAGGTTCACCC
[1]
  binding result: binds
[2]
  binding result: binds
[3]
  binding result: binds
[4]
  binding result: binds
[5]
  binding result: binds
[6]
  binding result: binds

B2: 60-mer dsDNA (dsDNA)
DNA 1: B1 DNA
DNA 2: GGGTGAACCTGCAGGTGGGCAAAGATGTCCTAGCAAGGCACTGGTAGAATTCGGCAGCGT
[7]
  binding result: no binding

B3: RFS-1 co-expressed with RIP-1 in budding yeast (natural protein, C. elegans, UniProt P34348 1-245, looked up)
chain: T1 sequence 2
notes: RFS-1 of C. elegans; see Supplemental Experimental Procedures; also called recombinant RFS-1; source: budding yeast, co-expressed with RIP-1, in extract; co-purified by FLAG immunoprecipitation
[8]
  stoichiometry N: 1
